# Reference: IntAct's records for PubMed 15694340
# B1: Phorbol-12-myristate-13-acetate-induced protein 1 (Homo sapiens), Q13794 (parent)
# chain: MPGKKARKNAQPSPARAPAELEVECATQLRRFGDKLNFRQKLLNLISKLFCSGT
# B2: Phorbol-12-myristate-13-acetate-induced protein 1 (Homo sapiens), Q13794 (parent)
# chain: B1 chain
# partner: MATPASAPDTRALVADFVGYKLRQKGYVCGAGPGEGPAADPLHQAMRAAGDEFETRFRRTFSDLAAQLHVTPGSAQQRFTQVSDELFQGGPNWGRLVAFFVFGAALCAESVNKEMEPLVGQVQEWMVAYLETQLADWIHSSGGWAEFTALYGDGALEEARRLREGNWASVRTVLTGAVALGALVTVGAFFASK
# B3: Bcl-2-like protein 11 (Mus musculus), O54918 (parent)
# chain: MAKQPSDVSSECDREGGQLQPAERPPQLRPGAPTSLQTEPQGNPDGEGDRCPHGSPQGPLAPPASPGPFATRSPLFIFVRRSSLLSRSSSGYFSFDTDRSPAPMSCDKSTQTPSPPCQAFNHYLSAMASIRQSQEEPEDLRPEIRIAQELRRIGDEFNETYTRRVFANDYREAEDHPQMVILQLLRFIFRLVWRRH
# Variants of: B1
# Settings: with BCL2L1, Q07817-1
# Chain of BCL2L1, Q07817-1 (Q07817 whole entry): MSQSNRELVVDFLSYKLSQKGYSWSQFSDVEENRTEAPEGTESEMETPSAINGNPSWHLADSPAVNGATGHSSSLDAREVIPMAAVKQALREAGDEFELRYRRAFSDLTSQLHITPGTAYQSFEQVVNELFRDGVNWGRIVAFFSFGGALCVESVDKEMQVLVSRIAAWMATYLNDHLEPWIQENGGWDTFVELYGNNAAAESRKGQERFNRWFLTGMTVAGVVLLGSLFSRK
row,Variant,effect of a mutation on the interaction
1,F32I,increasing interaction
2,K35E,increasing interaction

# Variants of: B2
# Settings: with BCL2L2, Q92843
row,Variant,effect of a mutation on the interaction
1,K35E,increasing interaction
2,F32I,increasing interaction

# Variants of: B3
# Settings: with mcl1_mouse Mcl1, P97287
# Chain of mcl1_mouse Mcl1, P97287 (P97287 whole entry): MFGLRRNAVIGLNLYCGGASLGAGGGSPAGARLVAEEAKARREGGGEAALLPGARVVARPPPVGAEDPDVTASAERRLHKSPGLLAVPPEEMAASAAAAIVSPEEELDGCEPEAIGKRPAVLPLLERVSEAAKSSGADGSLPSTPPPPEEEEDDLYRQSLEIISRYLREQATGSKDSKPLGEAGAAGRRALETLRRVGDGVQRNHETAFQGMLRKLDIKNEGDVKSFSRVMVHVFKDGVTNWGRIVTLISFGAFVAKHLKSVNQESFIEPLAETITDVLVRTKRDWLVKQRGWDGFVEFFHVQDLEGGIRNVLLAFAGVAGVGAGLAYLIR
row,Variant,effect of a mutation on the interaction
1,I146E,decreasing interaction
2,L150E,decreasing interaction
3,F157E,decreasing interaction
4,I153E,decreasing interaction
